Measurements as given in PMC4551915, “Bacteriophage GIL01 gp7 interacts with host LexA repressor to enhance DNA binding and inhibit RecA-mediated auto-cleavage” (Nucleic Acids Research, 2015).
Positions count from the first letter of the chain named. Where no end group is shown, it is not given here.

T1: His6-gp7 (Bacillus phage GIL01) (UniProt Q7WSG2)
T1 sequence: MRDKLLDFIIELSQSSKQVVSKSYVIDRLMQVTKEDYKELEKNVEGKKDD

T2: His6-LexA (Bacillus thuringiensis LexA repressor) (B. thuringiensis, UniProt A0RH75 1-206)
T2 construct: LexA, SOS transcription repressor of Bacillus thuringiensis; insert defined by nucleotide coordinates 3 624 082 through 3 624 714 in B. cereus strain G9842 (GenBank NC_011772), cloned BamHI-HindIII into pQE-30; also called His-tagged LexA; B. thuringiensis LexA repressor; source: E. coli M15 [pREP4], pQE-30, purified (Ni-NTA); not shown: His6, N-terminal, kept
T2 sequence (looked up): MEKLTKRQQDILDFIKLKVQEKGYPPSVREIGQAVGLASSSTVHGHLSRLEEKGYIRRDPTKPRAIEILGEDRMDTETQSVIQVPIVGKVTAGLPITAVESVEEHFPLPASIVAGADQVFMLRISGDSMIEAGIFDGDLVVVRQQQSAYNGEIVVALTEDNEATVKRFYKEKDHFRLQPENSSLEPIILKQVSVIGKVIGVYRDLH

T3: His6-gp7 (Bacillus phage GIL01, UniProt Q7WSG2 1-50)
T3 chain: T1 sequence

B1: His6-gp7 (bacteriophage GIL01 gp7, product of ORF7) (natural protein)
chain: His6-MRDKLLDFIIELSQSSKQVVSKSYVIDRLMQVTKEDYKELEKNVEGKKDD
B2: SPR Wt (dinBox1+dinBox1b) (dsDNA)
DNA 1: GTTACTACTCGAGCGTTAAAAAACGAACAAGCGTTTTATAAGTGTTCGGTTTTTGTA
DNA 2: TACAAAAACCGAACACTTATAAAACGCTTGTTCGTTTTTTAA
DNA 3: CGCTCGAGTAGTAAC
B3: SPR B11 (dinBox1 single mutant) (dsDNA)
DNA 1: B2 DNA 1 with G33T
DNA 2: B2 DNA 2 with C25A
DNA 3: CGCTCGAGTAGTAAC
B4: SPR B12 (dinBox1 double mutant) (dsDNA)
DNA 1: B2 DNA 1 with G25T, G33T
DNA 2: B2 DNA 2 with C25A, C33A
DNA 3: CGCTCGAGTAGTAAC
B5: SPR B21 (dinBox1b single mutant) (dsDNA)
DNA 1: B2 DNA 1 with G48A
DNA 2: B2 DNA 2 with C10T
DNA 3: CGCTCGAGTAGTAAC
B6: SPR B22 (dinBox1b double mutant) (dsDNA)
DNA 1: B2 DNA 1 with G44A, G48A
DNA 2: B2 DNA 2 with C10T, C14T
DNA 3: CGCTCGAGTAGTAAC
B7: SPR Ns (non-specific; both boxes mutated) (dsDNA)
DNA 1: B2 DNA 1 with G25T, G33T, G44A, G48A
DNA 2: B2 DNA 2 with C10T, C14T, C25A, C33A
DNA 3: CGCTCGAGTAGTAAC

How the values were obtained:
[1] = target: T1, His6-gp7 (Bacillus phage GIL01); assay: EMSA; conditions: EMSA/footprint: 80 mM NaCl, 25 mM Tris pH 7.5, 5 mM EDTA, 2 mM DTT, 0.1 mg/ml BSA, 0.05 ug/ul poly(dI-dC), room temp; SPR: 25 mM Tris-HCl pH 7.3, 140 mM NaCl …
[2] = target: T1, His6-gp7 (Bacillus phage GIL01); assay: DNase I footprinting; conditions: EMSA/footprint: 80 mM NaCl, 25 mM Tris pH 7.5, 5 mM EDTA, 2 mM DTT, 0.1 mg/ml BSA, 0.05 ug/ul poly(dI-dC), room temp; SPR: 25 mM Tris-HCl pH 7.3, 140 mM NaCl …
[3] = target: T2, His6-LexA (Bacillus thuringiensis LexA …); assay: SPR; Biacore T100, CM5 chip, His-tagged LexA covalently coupled (EDC/NHS, ~2000 RU), no DNA; His-tagged gp7 (1.6-50 nM, 360 s) or gp1 as analyte; 25°C, 30 μl/min, SPR buffer (25 mM Tris-HCl pH 7.3, 140 mM NaCl, 5 mM EDTA, 2 mM DTT, 0.1 mg/ml BSA, 0.005% P20); apparent KD from plot of response against concentration, assuming one gp7 monomer per LexA monomer; conditions: both partners purified
His6-gp7 = target: T3, His6-gp7; assay: SPR; 300 nM gp7; EMSA/footprint: 80 mM NaCl, 25 mM Tris pH 7.5, 5 mM EDTA, 2 mM DTT, 0.1 mg/ml BSA, 0.05 ug/ul poly(dI-dC), room temp; SPR: 25 mM Tris-HCl pH 7.3, 140 mM NaCl, 5 mM EDTA, 2 mM DTT, 0.1 mg/ml BSA, 0.005% P20, 25 C; conditions: protein: recombinant; tags: N-terminal His6 (pQE-30); label: 3'-biotin on S1 anchor; 42 bp; 15 nt 5' overhang annealed to S1

| Molecule | binding result (His6-gp7) | other results |
| --- | --- | --- |
| CCAAGGGTGCTATAATAGGAAATGAGTTAAAAAACGAACAAGCGTTTTATAAGTGTTCGGTTTTTGTAACATAACTGTAATATAAAAACATTTGCATTACTGGTAACTTTCGGGTAATATTGGTAGCAGAGAGGGACAAACGGGACAAATCGAGACACGATACATACTCTCTATACAAGTGAAAAGAAGGTGGTGCATAT (double strand) [P1 EMSA probe WT (-25 to +176)] | – | binding [1]: no binding |
| GTGTGACAAGATATTCCAAGGGTGCTATAATAGGAAATGAGTTAAAAAACGAACAAGCGTTTTATAAGTGTTCGGTTTTTGTAACATAACTGTAATATAAAAACATTTGCATTACTGGTAACTTTCGGGTAATATTGGTAGCAGAGAGGGACAAACGGGACAAATCGAGACACGATACATACTCTCTATACAAGTGAAAAGAAGGTGGTGCATAT (double strand) [P1 footprint probe WT (-39 to +176)] | – | binding [2]: no binding |
| B1 | – | Kd [3]: 17.7 nM |
| B2 | no binding | – |
| B3 | no binding | – |
| B4 | no binding | – |
| B5 | no binding | – |
| B6 | no binding | – |
| B7 | no binding | – |
